Source: the Immune Epitope Database (IEDB)

Columns and labels:
HLA-B*48:01 = assay: IEDB peptide-MHC binding, purified MHC/direct/fluorescence; filed as Kd, often an IC50 or EC50 that approximates it; ≥ and ≤ were set here for values at or beyond the usual limits of such assays
HLA-B*40:01 [1] = assay: IEDB peptide-MHC binding, purified MHC/competitive/radioactivity; filed as Kd, often an IC50 or EC50 that approximates it; ≥ and ≤ were set here for values at or beyond the usual limits of such assays
HLA-B*44:03 = assay: as above
HLA-B*40:02 = assay: as above
HLA-B*45:01 = assay: as above
HLA-B*18:01 [2] = assay: as above
HLA-B*44:02 [3] = assay: as above
HLA-B*40:01 [4] = assay: IEDB peptide-MHC binding, purified MHC/direct/fluorescence; filed as Kd, often an IC50 or EC50 that approximates it; ≥ and ≤ were set here for values at or beyond the usual limits of such assays
HLA-B*15:01 = assay: as above
HLA-A*03:01 = assay: as above
HLA-A*01:01 = assay: as above
HLA-B*57:01 = assay: as above
HLA-B*18:01 [5] = assay: as above
HLA-B*44:02 [6] = assay: as above
HLA-A*29:02 = assay: as above; conditions: source organism: Mycobacterium tuberculosis variant bovis BCG str. Pasteur 1173P2
HLA-B*46:01 = assay: as above
HLA-B*58:01 = assay: as above
HLA-B*27:05 = assay: as above
HLA-A*11:01 = assay: as above
HLA-A*31:01 = assay: as above
HLA-B*08:01 = assay: as above; conditions: source organism: Mycobacterium tuberculosis variant bovis BCG str. Pasteur 1173P2
HLA-A*02:01 = assay: as above; conditions: source organism: West Nile virus
HLA-B*07:02 = assay: as above; conditions: source organism: West Nile virus
HLA-A*69:01 = assay: as above; conditions: source organism: West Nile virus
HLA-B*39:01 = assay: IEDB peptide-MHC binding, purified MHC/competitive/fluorescence; filed as Kd, often an IC50 or EC50 that approximates it; ≥ and ≤ were set here for values at or beyond the usual limits of such assays; conditions: source organism: West Nile virus
[7] = source organism: West Nile virus
[8] = source organism: Mammarenavirus juninense
[9] = source organism: SARS coronavirus Tor2
[10] = source organism: Mycobacterium tuberculosis variant bovis BCG str. Pasteur 1173P2
[11] = source organism: Mammarenavirus choriomeningitidis
[12] = source organism: Mammarenavirus lassaense
[13] = source organism: Mammarenavirus brazilense

**Q.** RRFLEPVGK was tested. Which Kd (HLA-B*48:01; [7]) did it give?
**A.** ≥ 20 µM

**Q.** Which results are given for DELGNILSVY?
**A.** Kd (HLA-B*40:01 [1]; [8]): ≥ 69.5 µM; Kd (HLA-B*44:03; [8]): 1.21 µM; Kd (HLA-B*40:02; [8]): 14.1 µM; Kd (HLA-B*45:01; [8]): ≥ 70 µM; Kd (HLA-B*18:01 [2]; [8]): 0.00898 µM; Kd (HLA-B*44:02 [3]; [8]): 7.44 µM

**Q.** For FEYISDAFSL, which Kd (HLA-B*40:01 [1]; [9]) is on record?
**A.** 0.00166 µM

**Q.** And the Kd (HLA-B*44:03; [9])?
**A.** 1.45 µM

**Q.** And the Kd (HLA-B*40:02; [9])?
**A.** 0.838 µM

**Q.** And the Kd (HLA-B*45:01; [9])?
**A.** 6.38 µM

**Q.** What about the Kd (HLA-B*18:01 [2]; [9]) of the same sequence?
**A.** 1.8 µM

**Q.** What about the Kd (HLA-B*44:02 [3]; [9]) of the same sequence?
**A.** 3.21 µM

**Q.** SDRVVFVLWA was tested. Which Kd (HLA-B*40:01 [1]; [9]) did it give?
**A.** 14.7 µM

**Q.** And the Kd (HLA-B*44:03; [9])?
**A.** 0.736 µM

**Q.** And the Kd (HLA-B*40:02; [9])?
**A.** 16.7 µM

**Q.** What about the Kd (HLA-B*45:01; [9]) of the same sequence?
**A.** 1.95 µM

**Q.** What about the Kd (HLA-B*18:01 [2]; [9]) of the same sequence?
**A.** ≥ 26.4 µM

**Q.** And the Kd (HLA-B*44:02 [3]; [9])?
**A.** 0.654 µM

**Q.** How did the Kd (HLA-B*40:01 [4]; [10]) turn out when HPTSRRELL was run?
**A.** ≥ 20 µM

**Q.** And the Kd (HLA-B*15:01; [10])?
**A.** ≥ 20 µM

**Q.** What about the Kd (HLA-A*03:01; [10]) of the same sequence?
**A.** ≥ 20 µM

**Q.** And the Kd (HLA-A*01:01; [10])?
**A.** ≥ 20 µM

**Q.** What about the Kd (HLA-B*57:01; [10]) of the same sequence?
**A.** ≥ 20 µM

**Q.** What about the Kd (HLA-B*18:01 [5]; [10]) of the same sequence?
**A.** ≥ 20 µM

**Q.** And the Kd (HLA-B*44:02 [6]; [10])?
**A.** ≥ 20 µM

**Q.** What about the Kd (HLA-A*29:02) of the same sequence?
**A.** ≥ 20 µM

**Q.** And the Kd (HLA-B*46:01; [10])?
**A.** ≥ 20 µM

**Q.** And the Kd (HLA-B*58:01; [10])?
**A.** ≥ 20 µM

**Q.** And the Kd (HLA-B*27:05; [10])?
**A.** ≥ 20 µM

**Q.** And the Kd (HLA-B*48:01; [10])?
**A.** ≥ 20 µM

**Q.** And the Kd (HLA-A*11:01; [10])?
**A.** ≥ 20 µM

**Q.** And the Kd (HLA-A*31:01; [10])?
**A.** ≥ 20 µM

**Q.** And the Kd (HLA-B*08:01)?
**A.** 8.77 µM

**Q.** For LEGSVRVVT, which Kd (HLA-B*40:01 [1]; [9]) is on record?
**A.** 0.795 µM

**Q.** What about the Kd (HLA-B*44:03; [9]) of the same sequence?
**A.** 0.986 µM

**Q.** What about the Kd (HLA-B*40:02; [9]) of the same sequence?
**A.** 0.0699 µM

**Q.** What about the Kd (HLA-B*45:01; [9]) of the same sequence?
**A.** 0.0591 µM

**Q.** What about the Kd (HLA-B*18:01 [2]; [9]) of the same sequence?
**A.** 16.9 µM

**Q.** And the Kd (HLA-B*44:02 [3]; [9])?
**A.** 0.951 µM

**Q.** Which results are given for VHREWFMDL?
**A.** Kd (HLA-B*40:01 [4]; [7]): ≥ 20 µM; Kd (HLA-B*15:01; [7]): ≥ 20 µM; Kd (HLA-A*03:01; [7]): ≥ 20 µM; Kd (HLA-A*01:01; [7]): ≥ 20 µM; Kd (HLA-B*57:01; [7]): ≥ 20 µM; Kd (HLA-B*18:01 [5]; [7]): ≥ 20 µM; Kd (HLA-B*44:02 [6]; [7]): ≥ 20 µM; Kd (HLA-A*02:01): ≥ 20 µM; Kd (HLA-B*46:01; [7]): ≥ 20 µM; Kd (HLA-B*07:02): ≥ 20 µM; Kd (HLA-B*58:01; [7]): ≥ 20 µM; Kd (HLA-B*27:05; [7]): ≥ 20 µM; Kd (HLA-B*48:01; [7]): ≥ 20 µM; Kd (HLA-A*11:01; [7]): ≥ 20 µM; Kd (HLA-A*31:01; [7]): ≥ 20 µM; Kd (HLA-A*69:01): ≥ 20 µM; Kd (HLA-B*39:01): 1.48 µM

**Q.** How did the Kd (HLA-B*48:01; source organism: Campylobacter jejuni subsp. jejuni 81-176) turn out when FEKAKIEVL was run?
**A.** ≥ 20 µM

**Q.** Which results are given for MDLLLFSTS?
**A.** Kd (HLA-B*40:01 [1]; [11]): 7.05 µM; Kd (HLA-B*44:03; [11]): 2.68 µM; Kd (HLA-B*40:02; [11]): 0.265 µM; Kd (HLA-B*45:01; [11]): 1.06 µM; Kd (HLA-B*18:01 [2]; [11]): 4.09 µM; Kd (HLA-B*44:02 [3]; [11]): 6.84 µM

**Q.** How did the Kd (HLA-B*48:01; source organism: Dengue virus 1 Singapore/S275/1990) turn out when RKHGGMLVR was run?
**A.** ≥ 20 µM

**Q.** What does the source list for LEGSISYSEL?
**A.** Kd (HLA-B*40:01 [1]; [9]): 0.0617 µM; Kd (HLA-B*44:03; [9]): 1.5 µM; Kd (HLA-B*40:02; [9]): 0.156 µM; Kd (HLA-B*45:01; [9]): 2.21 µM; Kd (HLA-B*18:01 [2]; [9]): ≥ 45 µM; Kd (HLA-B*44:02 [3]; [9]): 5.58 µM

**Q.** Which results are given for KEAYCQEFFL?
**A.** Kd (HLA-B*40:01 [1]; [12]): 10.9 µM; Kd (HLA-B*44:03; [12]): 1.18 µM; Kd (HLA-B*40:02; [12]): 0.0153 µM; Kd (HLA-B*45:01; [12]): 15.6 µM; Kd (HLA-B*18:01 [2]; [12]): ≥ 30.5 µM; Kd (HLA-B*44:02 [3]; [12]): 0.52 µM

**Q.** What does the source list for KEQLQLLMPL?
**A.** Kd (HLA-B*40:01 [1]; [9]): 0.157 µM; Kd (HLA-B*44:03; [9]): 0.0491 µM; Kd (HLA-B*40:02; [9]): 0.00523 µM; Kd (HLA-B*45:01; [9]): 0.121 µM; Kd (HLA-B*18:01 [2]; [9]): 0.184 µM; Kd (HLA-B*44:02 [3]; [9]): 0.269 µM

**Q.** What does the source list for EDQGNPIVL?
**A.** Kd (HLA-B*40:01 [1]; [13]): 4.86 µM; Kd (HLA-B*44:03; [13]): ≥ 78.1 µM; Kd (HLA-B*40:02; [13]): ≥ 24.2 µM; Kd (HLA-B*45:01; [13]): 14.9 µM; Kd (HLA-B*18:01 [2]; [13]): ≥ 52.1 µM; Kd (HLA-B*44:02 [3]; [13]): ≥ 36.6 µM
